Assay results: US20110077210A1 (published 2011)
One block for each binder: values may come before it.

Tests used:
HDAC1-flag = HDAC1-flag (Homo sapiens (Human), UniProt Q13547 1-482); experiment: cell-based or functional assay
[1] = molecular target: T1, full length HDAC1 (yeast two-hybrid bait) (Homo sapiens (Human), UniProt Q13547 1-482); experiment: yeast two-hybrid screen
T1 construct: also called histone deacetylase 1
T1 sequence (Q13547 whole entry): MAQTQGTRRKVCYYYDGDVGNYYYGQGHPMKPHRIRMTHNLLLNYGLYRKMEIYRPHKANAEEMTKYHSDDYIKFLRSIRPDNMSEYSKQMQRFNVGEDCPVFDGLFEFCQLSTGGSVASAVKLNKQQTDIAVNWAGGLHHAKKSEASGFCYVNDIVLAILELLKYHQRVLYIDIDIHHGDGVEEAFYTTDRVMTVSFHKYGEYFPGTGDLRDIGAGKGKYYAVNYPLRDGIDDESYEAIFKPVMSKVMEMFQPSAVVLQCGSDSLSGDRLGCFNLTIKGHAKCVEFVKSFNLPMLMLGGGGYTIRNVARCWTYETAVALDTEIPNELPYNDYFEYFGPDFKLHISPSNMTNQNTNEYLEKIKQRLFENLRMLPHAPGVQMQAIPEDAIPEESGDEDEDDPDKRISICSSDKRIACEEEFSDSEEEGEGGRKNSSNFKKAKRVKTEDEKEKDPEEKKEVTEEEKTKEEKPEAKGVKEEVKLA

Chain of HDAC1-flag (Q13547 whole entry): as above

HDAC1 activity: release of [3H]acetic acid from an [3H]acetyl-labeled histone H4 peptide by immunoprecipitated HDAC1 (HDAC1-flag): ~4 fold
B1: V5-APPL (full length APPL protein) (other, not shown: small tags and cut ends)
chain: MPGIDKLPIEETLEDSPQTRSLLGVFEEDATAISNYMNQLYQAMHRIYDAQNELSAATHLTSKLLKEYEKQRFPLGGDDEVMSSTLQQFSKVIDELSSCHAVLSTQLADAMMFPITQFKERDLKEILTLKEVFQIASNDHDAAINRYSRLSKKRENDKVKYEVTEDVYTSRKKQHQTMMHYFCALNTLQYKKKIALLEPLLGYMQAQISFFKMGSENLNEQLEEFLANIGTSVQNVRREMDSDIETMQQTIEDLEVASDPLYVPDPDPTKFPVNRNLTRKAGYLNARNKTGLVSSTWDRQFYFTQGGNLMSQARGDVAGGLAMDIDNCSVMAVDCEDRRYCFQITSFDGKKSSILQAESKKDHEEWICTINNISKQIYLSENPEETAARVNQSALEAVTPSPSFQQRHESLRPAAGQSRPPTARTSSSGSLGSESTNLAALSLDSLVAPDTPIQFDIISPVCEDQPGQAKAFGQGGRRTNPFGESGGSTKSETEDSILHQLFIVRFLGSMEVKSDDHPDVVYETMRQILAARAIHNIFRMTESHLLVTCDCLKLIDPQTQVTRLTFPLPCVVLYATHQENKRLFGFVLRTSSGRSESNLSSVCYIFESNNEGEKICDSVGLAKQIALHAELDRRASEKQKEIERVKEKQQKELNKQKQIEKDLEEQSRLIAASSRPNQASSEGQFVVLSSSQSEESDLGEGGKKRESEA

binding result [1]: binds
B2: fragment of APPL (aa 489-639) identified in the yeast two-hybrid screen (other)
chain: TKSETEDSILHQLFIVRFLGSMEVKSDDHPDVVYETMRQILAARAIHNIFRMTESHLLVTCDCLKLIDPQTQVTRLTFPLPCVVLYATHQENKRLFGFVLRTSSGRSESNLSSVCYIFESNNEGEKICDSVGLAKQIALHAELDRRASEKQ
notes: Prey from a human brain cDNA library; The fragment fully overlaps the PTB domain (aa 500-634); also called APPL-PTB; fragment of DIP13alpha
